Test results as given in the RNAGym collection of RNA variant scans (doi:10.7554/elife.90254).

B1: LINE1-full (parent)
chain: UACGUAGGUGGUUUUCCCCUGAUAGUGCUAAGGGGGCCUGGAAGUUUGGACUGGGCAGAGCUCAACACAGCGUGGCAAAGUGGCUGUGGCUAGACUGCCUCUCUGGAUUCCUCGUCACUCAGCAGGGCAUCUCUGAGAGAAAUGCC

Variants of: B1
Assay: self-cleavage, relative activity (ratio to wild type); higher = more cleavage; in vitro, sequencing; the parent is a self-cleaving ribozyme

Variant | self-cleavage
A50U C66U | 0.01
U26C G32A | 1.03
U9G | 0.93
U45C U130C | 1.39
U14C A136G | 1.45
U13C U15G | 0.75
U9A A69U | 0.06
U9C U15G | 1.09
A129C | 1.67
U73C G122A | 1.19
C116U U130C | 0.89
A57U U96G | 0.22
A43U A78C | 2.35
A6U U104A | 1.16
A2G A65G | 0.2
A42G A117G | 1.71
A2C A50U | 0.75
C37G A59U | 0.84
A78U A140U | 1.72
U46C U109A | 1.41
A107C U109C | 2.7
A67C U130C | 0.04
C28A U96C | 0.17
C61G C145U | 0.03

Variant | self-cleavage
U20C A77U | 1.02
A124U U130C | 1.66
U1C A94G | 0.24
U5C A124G | 1.15
A30G A94G | 0.34
A64U A136U | 0.45
A78G C98G | 0.11
U9A U104G | 0.98
U12A A57G | 1.23
U29A U62A | 0
A94G G126A | 0.21
G32U U52A | 1.85
U45G G83A | 0.54
A69G C113U | 0.41
U104A U119G | 0.64
A77G A94U | 0.61
A64G C98U | 0.11
U12A U115A | 1.58
U15C A121U | 1.79
U47G U109C | 2.63
A64U U81A | 0.85
G106A U119C | 1.58
U26C U134A | 1.32
U39C A92U | 0.58

Variant | self-cleavage
U87A U96A | 0.07
A43U U47C | 2.03
A67G U85G | 0.12
A92U U134C | 0.71
G58A A136G | 0.05
U130C A142U | 1.6
G4U U52A | 1.01
U13A U100A | 0.59
C84G A140G | 0.12
G88A A140U | 0.07
A77C A140G | 1.16
A2G U130A | 1.72
U1A A50G | 0.75
U104G A140C | 0.28
A50G U85A | 0.05
A22U A24G | 1.95
G49U | 0.94
U29G A64G | 0.6
U14A U47A | 0.81
G89A U102C | 0.05
A43G U87G | 0.16
U20C U134C | 1.57
C133U A136G | 0.49
U26A A69G | 0.29

Variant | self-cleavage
G34U U39A | 1.89
A30G G126C | 1.72
U46C U132C | 1.61
U1A G40A | 1.26
C63A A129G | 0.09
A43U A77G | 2.1
U12A A94U | 0.51
A129G U132A | 1.54
U14C A50G | 1.08
A6G G25U | 0.69
U112C A138C | 1.98
A30C A50G | 1.21
U109A | 1.31
U73G A121G | 2.45
G35A U96C | 0.09
U52A A142G | 1.46
G127U A138G | 1.29
U1C U109A | 2.04
A65U U96A | 0
U29G U87C | 0.19
U52G U87C | 0.69
C63U U143C | 0.3
G114A U132C | 1.45
U85A U104A | 0.03

Variant | self-cleavage
A117U U130A | 1.55
U9C C113A | 1.2
U62A U73C | 0.02
G34U U119C | 1.7
A6U U20C | 1.19
A50G U134C | 0.86
G34U A79G | 0.55
U45G U130C | 2.36
U15A A67G | 0.41
A6G U46A | 0.94
A79G G83U | 0.2
U45C A67U | 0.12
G41U U62C | 0.04
G36C A140G | 1.12
G33A U132C | 1.47
A79G A92G | 0.18
A64G C113A | 0.17
U102C A107G | 1.67
U20A U62C | 0.06
C66U A129G | 0.01
U13C C68U | 0.17
U39C A57U | 0.06
A22U G34A | 0.82
U14C A124G | 1.09

Variant | self-cleavage
U46A U52A | 1.87
G11A U29C | 1.25
A22U U85A | 0.08
A78G G144A | 1.3
U46A A50G | 0.87
G54A A121U | 0.85
U104C A124G | 2.57
G32U A50G | 0.69
U15C U47A | 1.42
G106U G126A | 1.15
C56G A79G | 0.1
U20G A136U | 0.98
U115C G137U | 2.16
A77G C133U | 1.99
U73C C146A | 2.24
U45A A64U | 0.37
U9C A50G | 1
G114A A136G | 1.28
C3U C113A | 1.15
A30U G33A | 1.23
A77G C110U | 0.71
U26C C123U | 1.06
A69U U130G | 0.09
A6G A64G | 0.62

Variant | self-cleavage
U26C G139A | 1.34
G4A A141G | 0.89
A6G U130C | 0.81
C84U G114U | 0.15
A117G A124U | 1.25
A2G A64C | 0.59
U46A U112C | 1.28
U14C C66U | 0.03
A78C U112C | 1.94
C95A | 0.07
U29C A142G | 1.38
U73A U143C | 1.4
U14A C51U | 0.97
U96G U102C | 0
U115C A124G | 1.13
U104A A117U | 1.31
U1C G10A | 0.95
C61G A129C | 0.03
G27A A94G | 0.23
U52A U104C | 1.36
A107U U143A | 1.48
U29C A69G | 0.53
A50C U109C | 0.97
